fluorescein = fluorescein label
Legend:
[1] = target: fluorescein-labeled AID peptide, fluorescein-…-COOH; assay: fluorescence polarization, β protein titrated onto 0.5 nM fluorescein-labeled AID peptide
[2] = target: fluorescein-labeled AID peptide, fluorescein-…-COOH; assay: fluorescence polarization, equilibrium isotherm titration
[3] = target: fluorescein-labeled AID peptide, fluorescein-…-COOH; assay: fluorescence polarization
[4] = target: CaV1.2 (α1C) subunit expressed in Xenopus laevis oocytes by mRNA injection; assay: cell-based or functional assay
[5] = target: T1, full-length VDCC β2a mutant L392 changed to alanine (rabbit, UniProt P54288-2 1-606); assay: fluorescence polarization
T1 construct: mature

[6] = target: T2, full-length VDCC β2a mutant M246 changed to alanine (rabbit, UniProt P54288-2 1-606); assay: fluorescence polarization
T2 construct: mature

| Kd [1] | Kd [2] | Kd [3] | Kd [5] | Kd [6] | Molecule | Steady-state activation, V1/2 (mV) [4] | Steady-state activation, k (mV) [4] | Current amplitude (A), I at 20 mV [4] | Current amplitude (A), I at 30 mV [4] |
| --- | --- | --- | --- | --- | --- | --- | --- | --- | --- |
| 0.0066 µM | 0.006 to 0.015 µM | – | – | – | VDCC β2a linkerless core (domain I plus domain II, removable linker core after TEV digestion) (from UniProt P54288 51-172; P54288 230-449) | – | – | – | – |
| 0.0161 µM | 0.006 to 0.015 µM | 0.026 µM | – | – | full-length VDCC β2a subunit (rabbit, recombinant, histidine tag removed by TEV protease) (from UniProt P54288 44-632) | – | – | – | – |
| – | – | – | – | – | full-length rat VDCC β3 subunit protein (recombinant, tag removed) (from UniProt P54287 1-484) | 10 mV | 10.6 mV | – | – |
| – | – | – | – | – | full-length β2a protein as injected into oocytes (P122R) (from UniProt P54288 1-606) | 3.68 mV | 8.48 mV | -0.71 | -0.49 |
| – | – | – | – | – | β2a core protein as injected into oocytes (P122R) (from UniProt P54288 25-422) | 6.84 mV | 8.43 mV | -0.87 | -0.7 |
| – | – | – | – | – | β2a domain I + domain II prepared by proteolysis of full length protein and subsequent purification (injected) (from UniProt P54288 25-146; P54288 204-423) | 3.24 mV | 9.49 mV | -0.44 | -0.34 |
| – | – | – | – | – | β2a domain I protein as injected into oocytes (P122R) (from UniProt P54288 25-146) | 24 mV | 12.2 mV | -0.16 | -0.18 |
| – | – | – | – | – | β3 core protein (from UniProt P54287 21-370) | 10.7 mV | 10.1 mV | -0.45 | -0.41 |
| – | – | – | – | – | β3 subunit expressed in oocytes by mRNA injection | 10.7 mV | 9.08 mV | -0.56 | -0.48 |
| – | – | – | 0.34 µM | 1.7 µM | fluorescein-GGQQLEEDLRGYNSWITQGE-OH (also called labeled peptide; WT) [fluorescein-labeled AID peptide, fluorescein-GGQQLEEDLRGYNSWITQGE-COOH] | – | – | – | – |

From patent US20050288489A1 (published 2005)
